From publication PMC8983682 (Nature Communications, 2022) come the findings set out here.

This assay has as its target full-length N1-CA09-sNAp-130, membrane-anchored, C-terminal myc tag (Influenza A virus A/California/07/2009 …, UniProt C7FH46, stabilised). Description: flow cytometry on cells. The note with it: one partner purified. Background: Flow cytometry measures light scatter and fluorescence of single cells or particles in a stream.

B1: CD6 IgG (antibody, V domains shown)
VH: QVKLQESGGGLVQPKGSLKLSCAASGFTFNTYAMNWVRQAPGKGLEWVARIRSKSNNYATFYADSVKDRFTISRDDSQSMLYLQMHNLKTDDTAMYYCVRPSIYYYASGYLDVWGAGTTVTVSS
VL: QIVLSQSPAILSASPGEKVTMTCRTSSSVSYMHWYQQKPGSSPKPWIYATSNLASGVPFRFSGSGSGTSYSLTISRVEAEDAATYYCQQWNSNPPTFGGGTKLEIK
notes: copies: 2 + 2
As for B1, the binding result is “binds”.
